Kd data for 7 molecules are collected here from paper PMC11148069 (2024).

First the molecules themselves.
T1: recombinant Xenopus Nup98 target (BLI) (Xenopus)
T1 chain: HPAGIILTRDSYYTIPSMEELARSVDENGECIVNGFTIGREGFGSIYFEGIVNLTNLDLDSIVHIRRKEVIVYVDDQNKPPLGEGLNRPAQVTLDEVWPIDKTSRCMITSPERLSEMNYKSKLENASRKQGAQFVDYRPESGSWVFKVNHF

T2: recombinant human Nup98 target (BLI) (human, UniProt P52948 1-880)
T2 chain: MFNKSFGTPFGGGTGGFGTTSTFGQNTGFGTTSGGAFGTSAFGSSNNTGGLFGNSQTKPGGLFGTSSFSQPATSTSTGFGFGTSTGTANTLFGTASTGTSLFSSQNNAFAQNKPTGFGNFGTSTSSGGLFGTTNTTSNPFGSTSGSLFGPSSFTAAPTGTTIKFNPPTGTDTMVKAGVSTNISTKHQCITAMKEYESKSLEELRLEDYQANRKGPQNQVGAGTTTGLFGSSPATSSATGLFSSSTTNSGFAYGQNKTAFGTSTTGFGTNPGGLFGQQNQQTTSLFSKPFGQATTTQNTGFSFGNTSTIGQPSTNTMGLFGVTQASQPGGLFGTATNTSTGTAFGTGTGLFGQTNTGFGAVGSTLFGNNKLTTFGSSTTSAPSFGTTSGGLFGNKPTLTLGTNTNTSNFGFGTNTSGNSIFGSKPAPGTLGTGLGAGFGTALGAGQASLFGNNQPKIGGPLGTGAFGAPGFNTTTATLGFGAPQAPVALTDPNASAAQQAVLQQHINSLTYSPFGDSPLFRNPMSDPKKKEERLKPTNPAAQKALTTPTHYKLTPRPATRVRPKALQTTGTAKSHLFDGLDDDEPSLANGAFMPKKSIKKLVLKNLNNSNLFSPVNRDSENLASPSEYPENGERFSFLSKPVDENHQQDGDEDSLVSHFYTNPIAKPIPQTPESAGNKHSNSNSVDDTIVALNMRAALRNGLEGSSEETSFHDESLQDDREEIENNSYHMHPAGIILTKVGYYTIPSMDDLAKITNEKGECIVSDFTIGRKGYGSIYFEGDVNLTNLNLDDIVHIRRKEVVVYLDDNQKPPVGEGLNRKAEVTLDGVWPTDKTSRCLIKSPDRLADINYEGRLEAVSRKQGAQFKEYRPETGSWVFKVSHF

T3: recombinant Xenopus Nup93 target (BLI) (Xenopus, UniProt Q7ZX96 1-820)
T3 chain: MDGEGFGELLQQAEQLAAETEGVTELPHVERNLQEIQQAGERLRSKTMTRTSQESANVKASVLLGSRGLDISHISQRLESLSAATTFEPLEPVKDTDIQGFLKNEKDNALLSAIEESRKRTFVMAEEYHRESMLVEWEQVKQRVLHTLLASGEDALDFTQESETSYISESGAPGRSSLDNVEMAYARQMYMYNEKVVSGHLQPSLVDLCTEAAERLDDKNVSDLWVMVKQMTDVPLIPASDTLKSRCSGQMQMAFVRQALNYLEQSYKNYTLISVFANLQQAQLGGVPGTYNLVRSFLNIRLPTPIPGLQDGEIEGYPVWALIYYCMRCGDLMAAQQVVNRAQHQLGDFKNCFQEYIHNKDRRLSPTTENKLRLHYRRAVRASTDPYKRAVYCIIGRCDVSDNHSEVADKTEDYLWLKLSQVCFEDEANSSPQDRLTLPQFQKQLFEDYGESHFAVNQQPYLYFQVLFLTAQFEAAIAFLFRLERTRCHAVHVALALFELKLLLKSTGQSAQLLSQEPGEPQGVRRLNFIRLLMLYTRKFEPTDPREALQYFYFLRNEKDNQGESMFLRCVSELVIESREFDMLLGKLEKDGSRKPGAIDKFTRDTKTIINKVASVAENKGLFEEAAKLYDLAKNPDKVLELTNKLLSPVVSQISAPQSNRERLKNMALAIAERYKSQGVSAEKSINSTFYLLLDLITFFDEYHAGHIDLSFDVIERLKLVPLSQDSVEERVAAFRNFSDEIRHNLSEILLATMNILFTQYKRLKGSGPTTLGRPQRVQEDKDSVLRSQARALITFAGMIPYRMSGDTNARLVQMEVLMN

T4: Xenopus Nup35, endogenous (Xenopus (endogenous in egg extract))
T4 chain: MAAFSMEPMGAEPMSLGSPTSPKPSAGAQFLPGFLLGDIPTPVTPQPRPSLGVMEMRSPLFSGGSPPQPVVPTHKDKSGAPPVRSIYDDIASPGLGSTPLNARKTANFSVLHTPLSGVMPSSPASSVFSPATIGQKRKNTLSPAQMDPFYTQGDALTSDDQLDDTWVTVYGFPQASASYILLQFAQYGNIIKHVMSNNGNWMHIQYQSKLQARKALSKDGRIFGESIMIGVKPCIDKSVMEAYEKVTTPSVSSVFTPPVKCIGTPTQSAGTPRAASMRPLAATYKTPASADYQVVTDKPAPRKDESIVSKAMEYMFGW

T5: human Nup35, endogenous (human (endogenous in HeLa), UniProt Q8NFH5 1-326)
T5 chain: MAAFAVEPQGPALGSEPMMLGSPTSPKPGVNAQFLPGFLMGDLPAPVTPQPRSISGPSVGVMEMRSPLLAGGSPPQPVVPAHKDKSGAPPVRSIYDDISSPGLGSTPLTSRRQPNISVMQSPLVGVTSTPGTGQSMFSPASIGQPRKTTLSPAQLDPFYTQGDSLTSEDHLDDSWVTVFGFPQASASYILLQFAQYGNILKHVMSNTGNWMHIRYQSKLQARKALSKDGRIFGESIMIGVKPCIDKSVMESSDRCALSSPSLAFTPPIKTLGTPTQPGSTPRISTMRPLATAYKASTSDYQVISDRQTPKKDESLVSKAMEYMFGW

B1: xNup98-Nb1t (as added in the binding assay of Fig. 11C) (VHH)
VHH: QVQLVESGGGPVEAGGSLRLSCAASGRSFSNSVMAWFRQAPGKEREFLSVLNWSSGRTSIADSVKGRFTMSRDPAKITVYLQMNGLKPEDTAVYYCAASNRGSLYTLDNQNRYEDWGQGTQVTVSS
B2: xhNup93-Nb4i, biotinylated for BLI (VHH)
VHH: QVQLVESGGGVVQTGDSLMLSCTVSGHTIDNWAMGWFRQTPRKQREFVAAIDKRGTGAIYGNSVKGRFTVSRDNAKNMVYLRMNSLKPEDTAVYFCAVDQLNAGLGDVSYDYDYWGQGTQVTVSS
modifications: Biotin-[PEG]3-maleimide on two ectopic cysteines
B3: xhNup35-Nb1t (VHH)
VHH: QVQLVESGGGLVQAGGSLRLSCVGTGNISSAYTMAWYRQAAGKEREVVAGILNGGSTHYADSVKGRFTISRDNAKNTVYLQMNSLQPEDTGVYCCHVVIESTRFVYDHYWGQGTRVTVSS
B4: xNup93-Nb2t (VHH)
VHH: DVQLVESGGGLVQPGGSLRLSCVASGFTFSRVGMGWVRQAPGKGLEWVSDINASGGTGYADSVKGRFAISRDNAKNTLYLQMNRLKPEDTAVYYCAKMMDTAMIEAGIIKPAGQGTQVTVSS
B5: xhNup98-Nb3i (VHH)
VHH: QVQLVESGGGLVQAGGSLRLSCAASGRTFSTYAMGWFRQAPGKEREFVSACSWSGGITRYADSVKGRFTISRDNAKNTVYLQMNSLKPEDTAVYYCASAASSAAYSGAYYYTSYYDYWGQGTQVTVSS
B6: xhNup98-Nb2i, biotinylated for BLI (VHH)
VHH: QVQLVESGGGLAKPGGSLRLSCVATGTFRSMEDVGWYRQAPGKDRELVAEITTLGKVTYADSVKGRFTISRDDAKNAVYLQMSDLKSEDTAVYYCNIEADQTKGIGYVVYPYWGQGTRVTVSS
modifications: Biotin-[PEG]3-maleimide on two ectopic cysteines
B7: recombinant human Nup93 target (BLI) (natural protein)
chain: MDTEGFGELLQQAEQLAAETEGISELPHVERNLQEIQQAGERLRSRTLTRTSQETADVKASVLLGSRGLDISHISQRLESLSAATTFEPLEPVKDTDIQGFLKNEKDNALLSAIEESRKRTFGMAEEYHRESMLVEWEQVKQRILHTLLASGEDALDFTQESEPSYISDVGPPGRSSLDNIEMAYARQIYIYNEKIVNGHLQPNLVDLCASVAELDDKSISDMWTMVKQMTDVLLTPATDALKNRSSVEVRMEFVRQALAYLEQSYKNYTLVTVFGNLHQAQLGGVPGTYQLVRSFLNIKLPAPLPGLQDGEVEGHPVWALIYYCMRCGDLLAASQVVNRAQHQLGEFKTWFQEYMNSKDRRLSPATENKLRLHYRRALRNNTDPYKRAVYCIIGRCDVTDNQSEVADKTEDYLWLKLNQVCFDDDGTSSPQDRLTLSQFQKQLLEDYGESHFTVNQQPFLYFQVLFLTAQFEAAVAFLFRMERLRCHAVHVALVLFELKLLLKSSGQSAQLLSHEPGDPPCLRRLNFVRLLMLYTRKFESTDPREALQYFYFLRDEKDSQGENMFLRCVSELVIESREFDMILGKLENDGSRKPGVIDKFTSDTKPIINKVASVAENKGLFEEAAKLYDLAKNADKVLELMNKLLSPVVPQISAPQSNKERLKNMALSIAERYRAQGISANKFVDSTFYLLLDLITFFDEYHSGHIDRAFDIIERLKLVPLNQESVEERVAAFRNFSDEIRHNLSEVLLATMNILFTQFKRLKGTSPSSSSRPQRVIEDRDSQLRSQARTLITFAGMIPYRTSGDTNARLVQMEVLMN

Holding throughout (assay): BLI
For orientation: In BLI a coated tip is dipped into the sample, and binding shifts an interference pattern.

Experiment [1] addresses T1, recombinant Xenopus Nup98 target (BLI).
Experiment [2] has as its target T2, recombinant human Nup98 target (BLI).
Experiment [3] concerns the target T3, recombinant Xenopus Nup93 target (BLI).
The target of experiment [4] is B7.
The target in experiment [5] is T4, Xenopus Nup35, endogenous.
The target in experiment [6] is T5, human Nup35, endogenous.
Experiment [7] concerns the target xhNup93-Nb3t.

The Kd is the free concentration of one partner at which half of the binding sites on the other are occupied at equilibrium, for simple one-to-one binding. B1: the figures for the equilibrium dissociation constant (Kd) in experiment [1] and in experiment [2] were 1.7 nM and above 100 nM, respectively.

B2: the figures for the Kd in experiment [3] and in experiment [4] were below 0.01 nM and 3 nM, respectively. As for B3, the Kd came to 0.5 nM in experiment [5] and 0.8 nM in experiment [6]. As to B4, the Kd in experiment [3] stood at 4 nM. For the molecule B5, the dissociation constant (Kd) in experiment [1] and in experiment [2] was below 0.01 nM throughout.

For B6, the equilibrium dissociation constant (Kd) in experiment [1] was below 0.01 nM; in experiment [2], 0.02 nM. In the case of B7, the Kd in experiment [7] stood at 1 nM.
